Reference: the RNAGym collection of RNA variant scans (doi:10.1093/nar/gkz1192)

B1: CPEB3 Ribozyme (parent)
chain: UAACAGGGGGCCACAGCAGAAGCGUUCACGUCGCAGCCCCUGUCAGAUUCUGGUGAAUCUGCGAAUUCUGCUGUAUAUCUC

Variants of: B1
Assay: self-cleavage, relative activity (ratio to wild type); higher = more cleavage; in vitro, sequencing
How it was run: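 Relative activity was defined as the cleaved/total read fraction for a variant divided by the same fraction for the unmutated ribozyme. CPEB3 self-cleaving ribozyme libraries were made by rounds of error-prone PCR, barcoded, and transcribed in vitro with T7 RNA polymerase for 5 hours at 37°C, and cleavage ran through transcription plus a 15 min DNase I step before EDTA. Illumina sequencing of template-switched reverse transcripts gave the reads, and DNA sequencing mapped the barcodes. Averages come from three batches, using variants with at least 5 reads.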

Variant	self-cleavage
A15G U41A	0.23
A15G U41G	0.38
A15G C62U	0.26
A15G C62A	0.17
C14U C39A	0.55
A15G G46U	0.18
A15G G46A	0.38
C14G	1.08
C14U	1.15
A15G A56U	0.39
A15G A56G	0.62
A15G A56C	0.35
A15G C59A	0.27
A15G C59U	0.69
A15C C29U	0.22
A15G U25A	0.28
A15G U25C	0.28
A15G U25G	0.4
C14G A65U	0.26
C14G A65C	0.32
C14G C40G	0.1
A15G G55A	0.66
A15G G55U	0.65
C14G A21U	0.16

Variant	self-cleavage
C14G A21G	0.45
A15G G63A	0.79
A15G G63C	0.86
A15G G19C	0.49
A15G G19U	0.28
A15C U26C	0.36
A15C G53C	0.95
A15C U49A	0.7
A15C U49C	0.35
A15G C79G	1.26
A15G C79U	1.04
A15G C79A	1.19
A15G C50U	0.33
A15G C50A	0.4
A15G C50G	0.57
C14U G33A	0.21
C14U U80C	1.33
C14G U41C	1.14
A15C G73A	1.26
C14U U60A	0.53
C14U U60G	0.41
A15G U72C	1.16
A15G U72G	0.46
A15G U72A	0.48

Variant	self-cleavage
A15C C37U	0.58
A15G A47U	0.64
A15G A47G	0.87
A15C A47G	0.85
A15C A47U	0.17
C14U A15G	1.13
C14U A15U	1.07
A15C U31A	0.42
A15C U31C	0.6
A15G U66A	0.45
A15G U66G	0.35
A15G U66C	0.37
C14U G61C	0.35
C14G A20U	0.26
A15C A21U	0.34
A15C A21C	0.26
A15C A21G	0.49
C14U C23G	0.12
A15G C29G	0.16
A15G C29U	0.41
A15G C29A	0.16
A15G C17U	0.48
A15G C17A	0.34
C14U U69C	0.57

Variant	self-cleavage
A15G C37U	0.81
A15G C37G	0.69
A15G C37A	0.11
A15C G63A	0.99
A15C A65U	0.17
A15C A65G	0.46
A15C U74C	1.16
C14U U26A	0.93
C14U U26C	0.66
A15G A20G	0.47
A15G A20C	0.18
A15G A20U	0.24
A15G C40G	0.28
A15G C40A	0.41
A15G C40U	0.67
C14G C29A	0.87
C14G U48C	0.47
C14U C17U	0.87
C14U U78C	1.22
C14U U78G	1.27
A15G G73C	1.16
A15G G73A	1.19
A15G A35U	0.53
A15G A35G	0.68

Variant	self-cleavage
A15G A35C	0.45
C14U A21G	0.78
A15G G30C	0.27
A15G G30A	0.33
A15G G30U	0.42
A15G G36U	0.3
A15G G36A	0.34
A15G G61A	0.34
A15G C32A	0.24
A15G C32U	0.19
A15G C32G	0.11
C14U A64G	1.17
C14U A64U	0.61
C14U C38A	0.14
A15C U72C	1.1
A15C U72A	0.8
A15C A28U	0.8
A15G C81A	1.16
A15G C81U	1.02
A15G C81G	1.09
C14U U66C	0.8
C14U U66A	0.52
C14U G36A	0.32
A15C A64G	0.62

Variant	self-cleavage
C14U A47G	0.7
C14U A47U	1.21
C14U U74G	1.27
A15C U69C	0.26
C14U U49C	0.33
A15G G42A	0.15
A15G G42C	0.25
C14U A20U	0.4
C14U A20G	1.19
A15G G53C	1.05
A15G G53A	1.02
A15G G53U	1.02
A15G A77C	1.1
A15G A77G	1.15
A15G A77U	0.97
C14U C59A	0.28
C14G U51C	1.16
A15C U51A	1.06
A15C U51C	0.68
C14G U66C	0.29
A15G U67C	0.24
A15G U67A	0.35
A15G U67G	0.4
C14U U51C	1.25

Variant	self-cleavage
C14U U51A	1.24
C14G A15C	0.37
C14G A15G	0.79
A15G U74G	1.14
A15G U74A	1.14
A15G U74C	1.21
A15G G70U	0.18
A15G G70C	0.11
A15G G70A	0.29
A15C A45C	0.37
A15C A45U	0.45
A15C A45G	0.88
A15G A75G	0.92
A15G A75U	1.02
C14A U78C	1.07
C14U U41C	1.2
C14U U41A	0.24
C14U C29U	0.72
A15C A56U	0.3
A15C A56G	0.68
A15G A18U	0.26
A15G A18C	0.37
A15G A18G	0.5
